Experimental data from IntAct's records for PubMed 31515488.

B1: Low-density lipoprotein receptor class A domain-containing protein 1 (Homo sapiens), Q5T700 (parent)
chain: MNKVFPQGENGYTAAESKAHPGGEAGGGHLCCSRRGACLSASLLLLLATVAALIALVTILGLPSCTPGAQACITLTNRTGFLCHDQRSCIPASGVCDGVRTCTHGEDEDESLCRDVPQSLPHFLVAHCGDPASWIYSDQKCDGTNNCGDCSDELSPVTVCPPCGPGWWRCPSTFFKYCDCIPRHLCRDHVQHCSDWSDEYACPGP
partner: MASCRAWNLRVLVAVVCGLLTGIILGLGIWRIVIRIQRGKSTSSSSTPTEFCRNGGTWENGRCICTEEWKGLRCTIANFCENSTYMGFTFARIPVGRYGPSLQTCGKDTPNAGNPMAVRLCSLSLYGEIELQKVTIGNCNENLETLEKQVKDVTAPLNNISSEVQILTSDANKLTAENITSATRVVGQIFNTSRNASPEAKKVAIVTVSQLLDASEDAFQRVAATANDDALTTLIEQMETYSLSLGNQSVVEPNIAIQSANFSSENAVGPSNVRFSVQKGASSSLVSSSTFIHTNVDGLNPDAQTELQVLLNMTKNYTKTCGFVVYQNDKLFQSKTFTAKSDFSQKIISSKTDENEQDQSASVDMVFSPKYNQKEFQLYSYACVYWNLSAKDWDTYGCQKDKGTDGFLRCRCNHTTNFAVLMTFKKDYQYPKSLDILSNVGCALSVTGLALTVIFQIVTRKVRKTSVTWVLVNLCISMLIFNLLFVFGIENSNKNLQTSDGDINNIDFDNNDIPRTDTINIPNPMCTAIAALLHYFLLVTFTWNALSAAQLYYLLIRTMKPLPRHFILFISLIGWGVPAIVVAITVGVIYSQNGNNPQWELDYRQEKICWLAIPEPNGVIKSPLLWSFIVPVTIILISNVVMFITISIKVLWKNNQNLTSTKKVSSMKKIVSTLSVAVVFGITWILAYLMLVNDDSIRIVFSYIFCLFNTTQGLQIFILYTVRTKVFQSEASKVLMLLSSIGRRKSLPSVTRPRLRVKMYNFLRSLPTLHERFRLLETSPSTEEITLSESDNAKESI
B2: Caspase recruitment domain-containing protein 9 (Homo sapiens), Q9H257 (parent)
chain: MSDYENDDECWSVLEGFRVTLTSVIDPSRITPYLRQCKVLNPDDEEQVLSDPNLVIRKRKVGVLLDILQRTGHKGYVAFLESLELYYPQLYKKVTGKEPARVFSMIIDASGESGLTQLLMTEVMKLQKKVQDLTALLSSKDDFIKELRVKDSLLRKHQERVQRLKEECEAGSRELKRCKEENYDLAMRLAHQSEEKGAALMRNRDLQLEIDQLKHSLMKAEDDCKVERKHTLKLRHAMEQRPSQELLWELQQEKALLQARVQELEASVQEGKLDRSSPYIQVLEEDWRQALRDHQEQANTIFSLRKDLRQGEARRLRCMEEKEMFELQCLALRKDSKMYKDRIEAILLQMEEVAIERDQAIATREELHAQHARGLQEKDALRKQVRELGEKADELQLQVFQCEAQLLAVEGRLRRQQLETLVLSSDLEDGSPRRSQELSLPQDLEDTQLSDKGCLAGGGSPKQPFAALHQEQVLRNPHDAGLSSGEPPEKERRRLKESFENYRRKRALRKMQKGWRQGEEDRENTTGSDNTDTEGS
partner: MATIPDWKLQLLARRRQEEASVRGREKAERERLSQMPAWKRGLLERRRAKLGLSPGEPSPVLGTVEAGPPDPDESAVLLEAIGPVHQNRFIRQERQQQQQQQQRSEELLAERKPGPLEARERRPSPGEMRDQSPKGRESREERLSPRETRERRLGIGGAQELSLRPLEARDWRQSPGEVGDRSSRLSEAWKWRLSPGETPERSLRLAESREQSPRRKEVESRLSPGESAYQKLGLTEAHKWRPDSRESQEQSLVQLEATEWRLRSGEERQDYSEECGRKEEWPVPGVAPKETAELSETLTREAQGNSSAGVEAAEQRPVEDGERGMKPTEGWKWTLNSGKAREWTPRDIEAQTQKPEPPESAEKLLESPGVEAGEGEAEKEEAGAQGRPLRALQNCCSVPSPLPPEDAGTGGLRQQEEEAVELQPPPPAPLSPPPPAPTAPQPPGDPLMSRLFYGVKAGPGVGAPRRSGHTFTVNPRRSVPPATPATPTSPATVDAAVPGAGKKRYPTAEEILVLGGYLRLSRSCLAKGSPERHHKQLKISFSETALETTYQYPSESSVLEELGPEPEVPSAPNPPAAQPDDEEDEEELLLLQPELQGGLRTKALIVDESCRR
B3: mRNA-decapping enzyme 1A (Homo sapiens), Q9NPI6 (parent)
chain: MEALSRAGQEMSLAALKQHDPYITSIADLTGQVALYTFCPKANQWEKTDIEGTLFVYRRSASPYHGFTIVNRLNMHNLVEPVNKDLEFQLHEPFLLYRNASLSIYSIWFYDKNDCHRIAKLMADVVEEETRRSQQAARDKQSPSQANGCSDHRPIDILEMLSRAKDEYERNQMGDSNISSPGLQPSTQLSNLGSTETLEEMPSGSQDKSAPSGHKHLTVEELFGTSLPKEQPAVVGLDSEEMERLPGDASQKEPNSFLPFPFEQLGGAPQSETLGVPSAAHHSVQPEITTPVLITPASITQSNEKHAPTYTIPLSPVLSPTLPAEAPTAQVPPSLPRNSTMMQAVKTTPRQRSPLLNQPVPELSHASLIANQSPFRAPLNVTNTAGTSLPSVDLLQKLRLTPQHDQIQTQPLGKGAMVASFSPAAGQLATPESFIEPPSKTAAARVAASASLSNMVLAPLQSMQQNQDPEVFVQPKVLSSAIPVAGAPLVTATTTAVSSVLLAPSVFQQTVTRSSDLERKASSPSPLTIGTPESQRKPSIILSKSQLQDTLIHLIKNDSSFLSTLHEVYLQVLTKNKDNHNL
partner: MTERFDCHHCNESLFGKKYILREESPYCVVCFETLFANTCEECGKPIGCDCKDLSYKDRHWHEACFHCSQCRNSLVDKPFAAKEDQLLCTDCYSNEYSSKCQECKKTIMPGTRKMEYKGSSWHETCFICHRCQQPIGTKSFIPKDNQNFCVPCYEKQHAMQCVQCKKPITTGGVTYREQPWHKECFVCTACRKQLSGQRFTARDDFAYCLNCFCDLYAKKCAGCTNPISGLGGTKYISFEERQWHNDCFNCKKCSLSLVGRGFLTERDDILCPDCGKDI
B4: Transcription factor 12 (Homo sapiens), Q99081 (parent)
chain: MNPQQQRMAAIGTDKELSDLLDFSAMFSPPVNSGKTRPTTLGSSQFSGSGIDERGGTTSWGTSGQPSPSYDSSRGFTDSPHYSDHLNDSRLGAHEGLSPTPFMNSNLMGKTSERGSFSLYSRDTGLPGCQSSLLRQDLGLGSPAQLSSSGKPGTAYYSFSATSSRRRPLHDSAALDPLQAKKVRKVPPGLPSSVYAPSPNSDDFNRESPSYPSPKPPTSMFASTFFMQDGTHNSSDLWSSSNGMSQPGFGGILGTSTSHMSQSSSYGNLHSHDRLSYPPHSVSPTDINTSLPPMSSFHRGSTSSSPYVAASHTPPINGSDSILGTRGNAAGSSQTGDALGKALASIYSPDHTSSSFPSNPSTPVGSPSPLTGTSQWPRPGGQAPSSPSYENSLHSLQSRMEDRLDRLDDAIHVLRNHAVGPSTSLPAGHSDIHSLLGPSHNAPIGSLNSNYGGSSLVASSRSASMVGTHREDSVSLNGNHSVLSSTVTTSSTDLNHKTQENYRGGLQSQSGTVVTTEIKTENKEKDENLHEPPSSDDMKSDDESSQKDIKVSSRGRTSSTNEDEDLNPEQKIEREKERRMANNARERLRVRDINEAFKELGRMCQLHLKSEKPQTKLLILHQAVAVILSLEQQVRERNLNPKAACLKRREEEKVSAVSAEPPTTLPGTHPGLSETTNPMGHM
B5: NADPH oxidase activator 1 (Homo sapiens), Q86UR1 (parent)
chain: MASLGDLVRAWHLGAQAVDRGDWARALHLFSGVPAPPARLCFNAGCVHLLAGDPEAALRAFDQAVTKDTCMAVGFFQRGVANFQLARFQEALSDFWLALEQLRGHAAIDYTQLGLRFKLQAWEVLHNVASAQCQLGLWTEAASSLREAMSKWPEGSLNGLDSALDQVQRRGSLPPRQVPRGEVFRPHRWHLKHLEPVDFLGKAKVVASAIPDDQGWGVRPQQPQGPGANHDARSLIMDSPRAGTHQGPLDAETEVGADRCTSTAYQEQRPQVEQVGKQAPLSPGLPAMGGPGPGPCEDPAGAGGAGAGGSEPLVTVTVQCAFTVALRARRGADLSSLRALLGQALPHQAQLGQLSYLAPGEDGHWVPIPEEESLQRAWQDAAACPRGLQLQCRGAGGRPVLYQVVAQHSYSAQGPEDLGFRQGDTVDVLCEVDQAWLEGHCDGRIGIFPKCFVVPAGPRMSGAPGRLPRSQQGDQP
B6: Sodium channel modifier 1 (Homo sapiens), Q9BWG6 (parent)
chain: MSFKREGDDWSQLNVLKKRRVGDLLASYIPEDEALMLRDGRFACAICPHRPVLDTLAMLTAHRAGKKHLSSLQLFYGKKQPGKERKQNPKHQNELRREETKAEAPLLTQTRLITQSALHRAPHYNSCCRRKYRPEAPGPSVSLSPMPPSEVKLQSGKISREPEPAAGPQAEESATVSAPAPMSPTRRRALDHYLTLRSSGWIPDGRGRWVKDENVEFDSDEEEPPDLPLD
B7: PiggyBac transposable element-derived protein 1 (Homo sapiens), Q96JS3 (parent)
chain: MYEALPGPAPENEDGLVKVKEEDPTWEQVCNSQEGSSHTQEICRLRFRHFCYQEAHGPQEALAQLRELCHQWLRPEMHTKEQIMELLVLEQFLTILPKELQPCVKTYPLESGEEAVTVLENLETGSGDTGQQASVYIQGQDMHPMVAEYQGVSLECQSLQLLPGITTLKCEPPQRPQGNPQEVSGPVPHGSAHLQEKNPRDKAVVPVFNPVRSQTLVKTEEETAQAVAAEKWSHLSLTRRNLCGNSAQETVMSLSPMTEEIVTKDRLFKAKQETSEEMEQSGEASGKPNRECAPQIPCSTPIATERTVAHLNTLKDRHPGDLWARMHISSLEYAAGDITRKGRKKDKARVSELLQGLSFSGDSDVEKDNEPEIQPAQKKLKVSCFPEKSWTKRDIKPNFPSWSALDSGLLNLKSEKLNPVELFELFFDDETFNLIVNETNNYASQKNVSLEVTVQEMRCVFGVLLLSGFMRHPRREMYWEVSDTDQNLVRDAIRRDRFELIFSNLHFADNGHLDQKDKFTKLRPLIKQMNKNFLLYAPLEEYYCFDKSMCECFDSDQFLNGKPIRIGYKIWCGTTTQGYLVWFEPYQEESTMKVDEDPDLGLGGNLVMNFADVLLERGQYPYHLCFDSFFTSVKLLSALKKKGVRATGTIRENRTEKCPLMNVEHMKKMKRGYFDFRIEENNEIILCRWYGDGIISLCSNAVGIEPVNEVSCCDADNEEIPQISQPSIVKVYDECKEGVAKMDQIISKYRVRIRSKKWYSILVSYMIDVAMNNAWQLHRACNPGASLDPLDFRRFVAHFYLEHNAHLSD
partner: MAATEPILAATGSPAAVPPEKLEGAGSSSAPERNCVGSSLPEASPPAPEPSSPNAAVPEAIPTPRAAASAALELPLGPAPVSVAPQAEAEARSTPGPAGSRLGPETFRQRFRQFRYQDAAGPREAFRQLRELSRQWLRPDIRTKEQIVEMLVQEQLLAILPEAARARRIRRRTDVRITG

Variants of: B1
Conditions: with agrg7_human ADGRG7, Q96K78

Question: E108K was tested. Which “effect of a mutation on the interaction” value did it give?
Answer: with no effect

Variants of: B2
Conditions: with ppr18_human PPP1R18, Q6NYC8

Question: With V385L as the variant, how does the “effect of a mutation on the interaction” value read?
Answer: disrupting interaction strength

Variants of: B3
Conditions: with fhl2_human FHL2, Q14192

Question: With A297G as the variant, how does the “effect of a mutation on the interaction” value read?
Answer: with no effect

Question: For Q474H, which “effect of a mutation on the interaction” value is on record?
Answer: with no effect

Question: How did the “effect of a mutation on the interaction” value turn out when P332T was run?
Answer: with no effect

Variants of: B4
Conditions: with psa1_human PSMA1, P25786
Chain of psa1_human PSMA1, P25786 (P25786 whole entry): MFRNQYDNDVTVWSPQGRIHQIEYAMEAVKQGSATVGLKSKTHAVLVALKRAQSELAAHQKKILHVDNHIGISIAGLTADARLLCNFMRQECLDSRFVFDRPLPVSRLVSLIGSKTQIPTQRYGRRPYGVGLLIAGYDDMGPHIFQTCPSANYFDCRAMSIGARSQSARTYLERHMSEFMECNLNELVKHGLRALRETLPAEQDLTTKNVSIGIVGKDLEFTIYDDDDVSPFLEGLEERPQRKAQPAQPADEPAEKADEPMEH

Question: With N479S as the variant, how does the “effect of a mutation on the interaction” value read?
Answer: with no effect

Question: D565V was tested. Which “effect of a mutation on the interaction” value did it give?
Answer: with no effect

Question: With G300S as the variant, how does the “effect of a mutation on the interaction” value read?
Answer: with no effect

Question: Which “effect of a mutation on the interaction” value does the source give for I11M here?
Answer: with no effect

Question: With A458V as the variant, how does the “effect of a mutation on the interaction” value read?
Answer: with no effect

Question: For L483R, which “effect of a mutation on the interaction” value is on record?
Answer: with no effect

Variants of: B4
Conditions: with cdn2c_human CDKN2C

Question: N479S was tested. Which “effect of a mutation on the interaction” value did it give?
Answer: with no effect

Question: How did the “effect of a mutation on the interaction” value turn out when D565V was run?
Answer: with no effect

Question: G300S was tested. Which “effect of a mutation on the interaction” value did it give?
Answer: with no effect

Question: I11M was tested. Which “effect of a mutation on the interaction” value did it give?
Answer: with no effect

Question: How did the “effect of a mutation on the interaction” value turn out when A458V was run?
Answer: with no effect

Question: Which “effect of a mutation on the interaction” value does the source give for L483R here?
Answer: with no effect

Variants of: B5
Conditions: with rim3a_human RIMBP3, Q9UFD9
Chain of rim3a_human RIMBP3, Q9UFD9 (Q9UFD9 whole entry): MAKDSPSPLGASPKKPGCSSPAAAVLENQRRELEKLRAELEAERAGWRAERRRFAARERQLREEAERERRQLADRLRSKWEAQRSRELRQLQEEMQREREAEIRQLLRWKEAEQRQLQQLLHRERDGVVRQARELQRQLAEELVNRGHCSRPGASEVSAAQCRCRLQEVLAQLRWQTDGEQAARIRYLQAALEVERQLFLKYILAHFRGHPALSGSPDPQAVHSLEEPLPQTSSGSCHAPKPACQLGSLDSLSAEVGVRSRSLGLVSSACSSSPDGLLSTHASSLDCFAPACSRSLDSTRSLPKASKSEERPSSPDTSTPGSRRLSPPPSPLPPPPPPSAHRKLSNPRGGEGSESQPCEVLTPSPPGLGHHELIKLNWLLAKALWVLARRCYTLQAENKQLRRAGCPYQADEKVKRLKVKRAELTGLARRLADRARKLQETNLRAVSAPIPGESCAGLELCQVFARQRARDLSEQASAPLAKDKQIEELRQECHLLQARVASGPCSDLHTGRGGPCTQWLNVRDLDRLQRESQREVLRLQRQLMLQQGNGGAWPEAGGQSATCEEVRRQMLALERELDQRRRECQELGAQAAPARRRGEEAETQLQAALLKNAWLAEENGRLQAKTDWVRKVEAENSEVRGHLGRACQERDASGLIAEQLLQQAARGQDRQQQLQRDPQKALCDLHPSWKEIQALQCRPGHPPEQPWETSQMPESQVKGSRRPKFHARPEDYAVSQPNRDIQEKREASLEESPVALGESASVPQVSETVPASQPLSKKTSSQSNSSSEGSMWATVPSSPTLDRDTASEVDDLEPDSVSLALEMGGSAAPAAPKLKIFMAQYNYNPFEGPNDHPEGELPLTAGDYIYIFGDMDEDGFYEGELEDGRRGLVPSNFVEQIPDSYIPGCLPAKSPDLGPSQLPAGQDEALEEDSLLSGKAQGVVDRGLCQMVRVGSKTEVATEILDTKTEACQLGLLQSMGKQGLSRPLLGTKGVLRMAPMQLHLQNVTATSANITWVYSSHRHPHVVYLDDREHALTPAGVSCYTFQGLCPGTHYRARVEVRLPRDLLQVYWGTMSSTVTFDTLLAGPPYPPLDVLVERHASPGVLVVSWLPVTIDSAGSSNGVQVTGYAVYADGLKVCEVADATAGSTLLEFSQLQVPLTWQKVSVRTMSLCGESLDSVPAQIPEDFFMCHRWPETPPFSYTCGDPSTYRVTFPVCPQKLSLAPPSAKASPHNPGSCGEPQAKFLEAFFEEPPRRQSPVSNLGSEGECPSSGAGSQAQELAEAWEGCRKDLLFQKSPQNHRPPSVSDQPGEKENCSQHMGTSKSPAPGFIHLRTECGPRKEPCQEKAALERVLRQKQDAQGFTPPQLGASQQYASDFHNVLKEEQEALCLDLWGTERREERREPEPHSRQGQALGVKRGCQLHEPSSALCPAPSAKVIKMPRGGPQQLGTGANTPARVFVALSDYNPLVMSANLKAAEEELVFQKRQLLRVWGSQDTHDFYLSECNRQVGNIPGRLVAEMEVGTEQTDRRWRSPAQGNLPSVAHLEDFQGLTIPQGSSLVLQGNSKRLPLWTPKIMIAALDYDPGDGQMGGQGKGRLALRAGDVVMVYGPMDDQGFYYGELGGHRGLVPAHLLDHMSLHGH

Question: D6E was tested. Which “effect of a mutation on the interaction” value did it give?
Answer: with no effect

Variants of: B6
Conditions: with hm20a_human HMG20A

Question: R206P was tested. Which “effect of a mutation on the interaction” value did it give?
Answer: with no effect

Variants of: B6
Conditions: with trim1_human MID2, Q9UJV3
Chain of trim1_human MID2, Q9UJV3 (Q9UJV3 whole entry): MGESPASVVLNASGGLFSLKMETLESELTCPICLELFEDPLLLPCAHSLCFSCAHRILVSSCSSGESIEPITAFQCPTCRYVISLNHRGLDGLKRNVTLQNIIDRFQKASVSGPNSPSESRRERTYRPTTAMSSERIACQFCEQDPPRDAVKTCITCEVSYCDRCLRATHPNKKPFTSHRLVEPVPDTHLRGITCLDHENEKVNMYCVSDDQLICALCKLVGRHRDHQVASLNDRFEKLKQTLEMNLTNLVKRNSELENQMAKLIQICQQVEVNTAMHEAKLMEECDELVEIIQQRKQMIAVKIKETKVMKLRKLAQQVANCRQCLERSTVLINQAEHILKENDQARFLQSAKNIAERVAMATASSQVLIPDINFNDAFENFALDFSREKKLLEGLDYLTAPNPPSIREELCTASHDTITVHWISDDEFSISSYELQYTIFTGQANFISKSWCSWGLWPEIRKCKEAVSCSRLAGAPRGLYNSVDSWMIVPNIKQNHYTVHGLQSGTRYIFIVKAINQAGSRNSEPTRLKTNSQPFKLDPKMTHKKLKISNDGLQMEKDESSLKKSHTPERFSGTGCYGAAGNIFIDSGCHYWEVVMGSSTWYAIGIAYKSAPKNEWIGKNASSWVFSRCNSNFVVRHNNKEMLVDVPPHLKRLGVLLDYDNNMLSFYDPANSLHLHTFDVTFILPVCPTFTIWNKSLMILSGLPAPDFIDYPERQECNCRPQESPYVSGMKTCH

Question: For R206P, which “effect of a mutation on the interaction” value is on record?
Answer: with no effect

Variants of: B6
Conditions: with pls1_human PLSCR1, O15162
Chain of pls1_human PLSCR1, O15162 (O15162 whole entry): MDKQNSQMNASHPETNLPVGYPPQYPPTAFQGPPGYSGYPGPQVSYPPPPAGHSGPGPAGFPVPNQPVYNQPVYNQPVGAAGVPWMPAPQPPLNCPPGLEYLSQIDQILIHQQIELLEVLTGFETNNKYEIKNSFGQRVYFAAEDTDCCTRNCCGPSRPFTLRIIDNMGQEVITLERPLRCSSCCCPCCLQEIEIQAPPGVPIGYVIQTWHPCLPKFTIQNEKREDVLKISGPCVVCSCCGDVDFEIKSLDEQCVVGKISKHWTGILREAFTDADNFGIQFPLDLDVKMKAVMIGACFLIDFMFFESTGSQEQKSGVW

Question: For R206P, which “effect of a mutation on the interaction” value is on record?
Answer: with no effect

Variants of: B6
Conditions: with inca1_human INCA1, Q0VD86
Chain of inca1_human INCA1, Q0VD86 (Q0VD86 whole entry): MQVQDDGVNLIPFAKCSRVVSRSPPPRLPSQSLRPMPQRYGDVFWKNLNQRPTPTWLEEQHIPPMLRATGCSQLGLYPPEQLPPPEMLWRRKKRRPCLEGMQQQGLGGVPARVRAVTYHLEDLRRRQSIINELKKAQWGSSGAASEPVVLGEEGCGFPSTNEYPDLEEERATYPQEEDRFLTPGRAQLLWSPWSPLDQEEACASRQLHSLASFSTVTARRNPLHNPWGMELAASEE

Question: How did the “effect of a mutation on the interaction” value turn out when R206P was run?
Answer: with no effect

Variants of: B7
Conditions: with scnd1_human SCAND1, P57086

Question: How did the “effect of a mutation on the interaction” value turn out when N398S was run?
Answer: with no effect
